Reference: the supplement of paper PMC9732359
± gives the uncertainty stated by the source.

assay: protein stability index of a GFP-peptide fusion (yeast GPS) (PSI 1-4); higher = more stable; sorted into four equal gates, so the index is relative within each strain; conditions: doa10∆
In short: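 Plasmids isolated from each sorting gate were PCR-amplified and Illumina-sequenced, and barcodes assigned the reads to strains. The gates, four of equal size, were set by GFP/Cherry fluorescence ratio on mid-log cultures in leucine-free medium. These cultures were yeast carrying a pooled library of tiled 17-residue yeast protein peptides fused downstream of GFP on a plasmid that also expresses Cherry. The protein stability index is the sum of every gate's read frequency times its gate number.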

Sequence	protein stability index
EFTSKIGFTIKEYENHS [SMC1]	2.59 ± 0.11
EGDASPFTDITVEGISK [RPB2]	3.17 ± 0.14
EGDGAKAAISFGAKPEE [YJL041W/NSP1]	3.21 ± 0.1
EGEPVNSPNYFVAKLAA [COR1]	3.31 ± 0.16
EGKYIVDVAKDINVKDL [RPT6]	3.44 ± 0.12
EGNTVLEKGNNPSVKQG [SWP82]	3.11 ± 0.067
EGNYRNLNNLKQENAYL [RPB8]	3.31 ± 0.084
EGQADIDMESDVEDDDK [POP7]	3.37 ± 0.095
EGRLLDNVQANDPAREK [SNF12]	2.8 ± 0.11
EGSKSHPFGHALVAGIE [RPL27A]	2.73 ± 0.061
EHKSQVVLYNYYLGQYY [CSN12]	2.23 ± 0.12
EIALKGLESLLNIGLGA [YCS4]	2.65 ± 0.11
EIDVENHDRINISNNLQ [RPN8]	3.21 ± 0.061
EIGILDHVDGSSEFVSQ [RRP46]	1.69 ± 0.067
EIGITQQRIVSAYEASM [RRP4]	3.04 ± 0.098
EIIFLGAQIVSKQIFTH [ARP9]	1.22 ± 0.1
EIKKLLATNSLVEEFML [DIS3]	2.32 ± 0.055
EINLSKIFQTTPEKDLF [YCS4]	2.72 ± 0.11
EINPFLLGTMAGGAADC [PRE2]	2.88 ± 0.18
EINSVGNPGLPQYQYQR [ITC1]	2.66 ± 0.11
EISAAHNKLNITSDALE [SMC3]	2.64 ± 0.17
EITDAYCFAKNDLFFNN [YMR129W/POM152]	2.59 ± 0.059
EITSVLSNLHESNKRYR [SNF12]	3.1 ± 0.085
EIVDTYQEDIFVSESPS [ISW2]	2.83 ± 0.093
EKACQVLKYMLLSKIML [RPN6]	1.76 ± 0.049
EKAKEMIRLLGSESDDS [ECM29]	2.51 ± 0.2

Sequence	protein stability index
EKASGFEDSMQFKKLTH [PRP8]	2.81 ± 0.085
EKCKEINVETVYDIMAL [BRR2]	2.28 ± 0.059
EKGNAKMIDFATLSKLK [SIR3]	3.15 ± 0.074
EKINRMIIFLKNYDATD [CSI1]	2.52 ± 0.045
EKITQISLLCKNFKGIE [PCI8]	2.41 ± 0.049
EKKPAAKKTSTSTDGKK [HTB1]	3.33 ± 0.21
EKLTSKSLDEQLLLLSD [LRP1]	3.16 ± 0.077
EKTYTKAPKIQRLVTPQ [RPS6A]	2.62 ± 0.056
EKVFNAYPAAREQFLNA [FAS1]	3.16 ± 0.084
ELAGDEELEAEQIDVFS [PRP8]	3.43 ± 0.079
ELDSKTRKILEILNECH [MED4]	3.21 ± 0.074
ELEFIQSLANIQYVTYL [SOH1]	2.48 ± 0.068
ELEKYNELERNRKIYQF [SMC3]	2.34 ± 0.099
ELEQLVEFNRKVVIPNL [RPN3]	3.3 ± 0.14
ELIALNLSEARLVIKEA [RPB4]	3.01 ± 0.16
ELISFKERTKSLEHELK [YIL149C/MLP2]	2.24 ± 0.062
ELISYRNESLKNNSSIR [SRB8]	3.15 ± 0.068
ELLSMGNAKESKALLRE [SRP72]	2.98 ± 0.12
ELNDNPAWFNNPRKRAI [YMR153W/NUP53]	3.09 ± 0.089
ELNQDRLGGDDLRIRIK [SNF5]	3.31 ± 0.11
ELNVDSMDVDDKNSGVK [ITC1]	1.97 ± 0.1
ELQEKNVELLNCIRILA [YIL149C/MLP2]	2.19 ± 0.054
ELTDNMSDFVPIDAGLN [MCD1]	3.12 ± 0.11
ELTSFSSQPLEPLSDTE [DSN1]	3.34 ± 0.11
ELVETSEVRKAVSIETA [FAS2]	2.43 ± 0.14
ELYSFQQLVDSEKRLDH [SNF12]	1.35 ± 0.095

Sequence	protein stability index
EMARTKKACIIFFDEID [RPT1]	2.14 ± 0.062
EMDSVSKSMKFSRRFDC [CSN9]	2.56 ± 0.11
EMLEENFPEASKLSEHL [YCG1]	2.55 ± 0.28
EMNLHVPQSEETRAELS [RPO21]	3.17 ± 0.2
ENDEEDIYMHDVNSASK [RRP4]	3.47 ± 0.098
ENDEEFYKNKYSSKPYK [RPN2]	2.4 ± 0.062
ENDQQDNEEWMNDVINT [LIN1]	3.36 ± 0.076
ENEDGNIEERKEKIQHE [BRR2]	3.23 ± 0.14
ENEVENINATNTSVLMK [YCS4]	3.3 ± 0.16
ENGTHNDEVNEDEEDDN [YCG1]	3.42 ± 0.1
ENIENEEYVINLLKVSV [ECM29]	1.96 ± 0.12
ENNRLLFECRTCSYVEE [RPB9]	3.12 ± 0.13
ENNTDSARKELEQKIHE [SMC1]	2.33 ± 0.1
ENRFQDTLLLLPTDGGL [POP4]	1.46 ± 0.096
ENVKIINYLLTLAITTV [RPN2]	2.95 ± 0.06
EPGVLNTGDGSISTYKD [ECM29]	3.28 ± 0.15
EPLAFYLEESFTNLGII [RGR1]	1.67 ± 0.063
EPLSDTEEPDLAIADVE [DSN1]	2.96 ± 0.081
EPSYIFEYLATVMYQRR [PRE4]	2.1 ± 0.081
EQFKMVSMITDHNALPQ [POP1]	3.04 ± 0.18
EQILQWVTEVLGNDIPH [BRR2]	3.07 ± 0.07
EQKLVDLLKFENISLAE [BRR2]	2.65 ± 0.065
EQNHLDNNYNTAETNNK [YDL088C/ASM4]	3 ± 0.056
EQPCVDIISGKIHSILP [YJR042W/NUP85]	3.02 ± 0.067
EQQKGQQTAQTQLEQQR [SNF5]	3.33 ± 0.11
EQRKQKLSKILPRYQEL [SMC3]	3.22 ± 0.12

same assay, conditions: pdr5∆

Sequence	protein stability index
EFTSKIGFTIKEYENHS [SMC1]	3.04 ± 0.061
EGDASPFTDITVEGISK [RPB2]	2.97 ± 0.17
EGDGAKAAISFGAKPEE [YJL041W/NSP1]	3 ± 0.087
EGEPVNSPNYFVAKLAA [COR1]	3.16 ± 0.14
EGKYIVDVAKDINVKDL [RPT6]	3.21 ± 0.11
EGNTVLEKGNNPSVKQG [SWP82]	3.12 ± 0.082
EGNYRNLNNLKQENAYL [RPB8]	3.31 ± 0.085
EGQADIDMESDVEDDDK [POP7]	3.18 ± 0.11
EGRLLDNVQANDPAREK [SNF12]	3.21 ± 0.065
EGSKSHPFGHALVAGIE [RPL27A]	2.83 ± 0.069
EHKSQVVLYNYYLGQYY [CSN12]	1.81 ± 0.13
EIALKGLESLLNIGLGA [YCS4]	2.47 ± 0.092
EIDVENHDRINISNNLQ [RPN8]	3.26 ± 0.082
EIGILDHVDGSSEFVSQ [RRP46]	2.01 ± 0.059
EIGITQQRIVSAYEASM [RRP4]	2.98 ± 0.081
EIIFLGAQIVSKQIFTH [ARP9]	1.33 ± 0.075
EIKKLLATNSLVEEFML [DIS3]	1.9 ± 0.052
EINLSKIFQTTPEKDLF [YCS4]	2.29 ± 0.075
EINPFLLGTMAGGAADC [PRE2]	3.22 ± 0.12
EINSVGNPGLPQYQYQR [ITC1]	2.59 ± 0.077
EITDAYCFAKNDLFFNN [YMR129W/POM152]	2.56 ± 0.063
EITSVLSNLHESNKRYR [SNF12]	3.05 ± 0.071
EIVDTYQEDIFVSESPS [ISW2]	2.8 ± 0.11
EKACQVLKYMLLSKIML [RPN6]	1.49 ± 0.048
EKAKEMIRLLGSESDDS [ECM29]	2.13 ± 0.11

Sequence	protein stability index
EKASGFEDSMQFKKLTH [PRP8]	3.12 ± 0.083
EKCKEINVETVYDIMAL [BRR2]	2.44 ± 0.049
EKGNAKMIDFATLSKLK [SIR3]	3.08 ± 0.057
EKINRMIIFLKNYDATD [CSI1]	2.34 ± 0.044
EKITQISLLCKNFKGIE [PCI8]	2.55 ± 0.039
EKKPAAKKTSTSTDGKK [HTB1]	3.07 ± 0.11
EKLTSKSLDEQLLLLSD [LRP1]	3.44 ± 0.065
EKNDQNNDDDDNSVEQG [MCD1]	3.15 ± 0.22
EKQHENAVLELGTVQRE [SMC3]	3.54 ± 0.26
EKTYTKAPKIQRLVTPQ [RPS6A]	2.43 ± 0.055
EKVFNAYPAAREQFLNA [FAS1]	3.19 ± 0.094
ELAGDEELEAEQIDVFS [PRP8]	3.27 ± 0.13
ELDSKTRKILEILNECH [MED4]	3.22 ± 0.06
ELEFIQSLANIQYVTYL [SOH1]	2.54 ± 0.053
ELEKYNELERNRKIYQF [SMC3]	2.35 ± 0.13
ELEQLVEFNRKVVIPNL [RPN3]	2.77 ± 0.28
ELISFKERTKSLEHELK [YIL149C/MLP2]	2.64 ± 0.064
ELISYRNESLKNNSSIR [SRB8]	3.05 ± 0.11
ELLSMGNAKESKALLRE [SRP72]	2.81 ± 0.21
ELNDNPAWFNNPRKRAI [YMR153W/NUP53]	2.96 ± 0.066
ELNQDRLGGDDLRIRIK [SNF5]	3.36 ± 0.19
ELNVDSMDVDDKNSGVK [ITC1]	1.27 ± 0.042
ELQEKNVELLNCIRILA [YIL149C/MLP2]	1.95 ± 0.065
ELTDNMSDFVPIDAGLN [MCD1]	2.99 ± 0.1
ELTSFSSQPLEPLSDTE [DSN1]	3.12 ± 0.096

Sequence	protein stability index
ELYSFQQLVDSEKRLDH [SNF12]	2.26 ± 0.074
EMARTKKACIIFFDEID [RPT1]	2.5 ± 0.068
EMDSVSKSMKFSRRFDC [CSN9]	2.6 ± 0.076
EMLEENFPEASKLSEHL [YCG1]	2.29 ± 0.24
EMNLHVPQSEETRAELS [RPO21]	3.31 ± 0.092
ENDEEDIYMHDVNSASK [RRP4]	3.47 ± 0.095
ENDEEFYKNKYSSKPYK [RPN2]	2.61 ± 0.097
ENDQQDNEEWMNDVINT [LIN1]	3.24 ± 0.073
ENEDGNIEERKEKIQHE [BRR2]	3.47 ± 0.1
ENEFVVLLDARDIEKIT [CDC53]	2.98 ± 0.17
ENEVENINATNTSVLMK [YCS4]	3.02 ± 0.12
ENGTHNDEVNEDEEDDN [YCG1]	3.23 ± 0.12
ENIENEEYVINLLKVSV [ECM29]	3.23 ± 0.19
ENNRLLFECRTCSYVEE [RPB9]	3.2 ± 0.14
ENNTDSARKELEQKIHE [SMC1]	2 ± 0.094
ENRFQDTLLLLPTDGGL [POP4]	2.12 ± 0.085
ENVKIINYLLTLAITTV [RPN2]	3.03 ± 0.057
EPGVLNTGDGSISTYKD [ECM29]	3.22 ± 0.15
EPLAFYLEESFTNLGII [RGR1]	2.18 ± 0.053
EPLSDTEEPDLAIADVE [DSN1]	2.81 ± 0.067
EPSYIFEYLATVMYQRR [PRE4]	2.46 ± 0.1
EQFKMVSMITDHNALPQ [POP1]	3.05 ± 0.11
EQILQWVTEVLGNDIPH [BRR2]	3.31 ± 0.063
EQKLVDLLKFENISLAE [BRR2]	2.93 ± 0.066
EQNHLDNNYNTAETNNK [YDL088C/ASM4]	2.96 ± 0.067
